The target in one test is T1, soluble CD32A (sCD32A) (UniProt P12318 34-217, limits assumed).
T1 construct: extracellular domain; Negative control surface in SPR; also called control receptor
T1 sequence (looked up): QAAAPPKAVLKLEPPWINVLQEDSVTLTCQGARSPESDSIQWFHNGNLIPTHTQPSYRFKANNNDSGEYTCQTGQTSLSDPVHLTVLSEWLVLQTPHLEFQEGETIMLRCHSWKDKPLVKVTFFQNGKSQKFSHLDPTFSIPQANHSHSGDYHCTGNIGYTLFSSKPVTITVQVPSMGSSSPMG
Nature of the test: SPR (BIAcore), sCD32A (negative control receptor) immobilised, diabody injected for 60 s. As for the experimental part: (§1) The binding of h2B6-h3G8 CBD, h2B6 CMD and h3G8 CMD to sCD16A, sCD32B, and sCD32A (negative control) was assayed by SPR analysis. h3G8 scFv was also tested as a control. (A) Binding to sCD16; (B) Binding to sCD32B and (C) Binding to sCD32A. Diabodies were injected at a concentration of 100 NM, and scFv at a concentration of 200 nM, over receptor surfaces at a flow rate of […] for 60 sec.
For orientation: SPR reads the build-up and loss of mass on a sensor chip optically.

In another test the target is T2, sCD32B-Ig (UniProt P31994 43-217).
T2 construct: extracellular domain; also called CD32B (ELISA coat); sCD32B (target protein of the sandwich ELISAs); not shown: Ig part of sCD32B-Ig is not described
T2 sequence (looked up): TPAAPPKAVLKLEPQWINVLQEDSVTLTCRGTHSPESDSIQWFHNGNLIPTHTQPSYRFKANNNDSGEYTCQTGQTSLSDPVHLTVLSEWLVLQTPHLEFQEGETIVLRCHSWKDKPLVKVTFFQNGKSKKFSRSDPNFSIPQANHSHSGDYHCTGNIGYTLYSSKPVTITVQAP
Nature of the test: sandwich ELISA: sCD32B-Ig coated on the plate, diabody titrated, detected with labelled sCD16A; OD450. Here is the method: The binding of h2B6-h3G8 CBD to sCD32B and sCD16A was assayed in a sandwich ELISA. sCD32B was used as the target protein. The secondary probe was HRP conjugated sCD16A. h3G8 CMD, which binds CD16A, was used as control.
ELISA: The binding of eluted and purified diabodies was characterized by ELISA assay, as described in 5.4.2. 50 ul/well of a 2 ug/ml solution of sCD32B-Ig was coated on 96-well Maxisorp plate in Carbonate buffer at 4° C. over night. The plate was washed three times with PBS-T (PBS, 0.1% Tween 20) and blocked by 0.5% BSA in PBS-T for 30 minutes at room temperature. Subsequently, h2B6-h3G8 CBD, h2B6 CMD, or h3G8 CMD were diluted into the blocking buffer in a serial of two-fold dilutions to generate a range of diabody concentrations, from 0.5 μg/ml to 0.001 μg/ml. The plate was then incubated at room temperature for 1 hour. After washing with PBS-T three times, 50 ul/well of 0.2 ug/ml sCD16A-Biotin was added to each well. The plate was again incubated at room temperature for 1 hour. After washing with PBS-T three times, 50 ul/well of a 1:5000 dilution of HRP conjugated streptavidin (Amersham Pharmacia Biotech) was used for detection. The HRP-streptavidin was allowed to incubate for 45 minutes at room temperature. […] The OD450 nm was read by using a 96-well plate reader and SOFTmax software, and results plotted using GraphPadPrism 3.03 software. […]
On the technique in general: ELISA stands for enzyme-linked immunosorbent assay.

Test [1] concerns the target T3, soluble CD16A (sCD16A) (UniProt P08637 17-208, limits assumed).
T3 construct: extracellular domain; Amine-coupled to the chip in SPR; biotin- or HRP-conjugated as the probe in the sandwich ELISAs; also called FcγRIIIA; sCD16A-Biotin
Nature of the test: SPR (BIAcore 1000); receptor amine-coupled (~1000 RU), analyte 6.25-200 nM; units not printed (koff/kon implies nM). Here is the method:
(§2) The binding of h2B6-h3G8 CBD, h2B6 CMD and h3G8 CMD to sCD16A, and sCD32B was assayed by SPR analysis. h3G8 scFv was also tested as a control. (A) Binding of to h3G8 CMD sCD16A; (B) Binding of h2B6-h3G8 CBD to sCD16A; (C) Binding of h3G8 scFv to sCD16A; (D) Binding of h2B6 CMD to sCD32B; and (E) Binding of h2B6-h3G8 CBD to sCD32B. Diabodies were injected at concentrations of 6.25-200 nM over receptor surfaces at a flow rate of […] for 180 sec.
(§3) SPR analysis was also used to estimate the kinetic and equilibrium constants of the CMDs and h2B6-h3G8 CBD to sCD16 and/or sCD32B. Results were compared to the same constants calculated for an h3G8 scFV. FIGS. 7A-E show the graphical results of the SPR analysis. The kinetic on and off rates, as well as the equilibrium constant, calculated from the results depicted in FIG. 7 are provided in Table 13.

In test [2] the target is T4, soluble CD32B (sCD32B) (UniProt P31994 43-217, limits assumed).
T4 construct: extracellular domain; As immobilised on the BIAcore chip; also called FcγRIIB
T4 sequence (looked up): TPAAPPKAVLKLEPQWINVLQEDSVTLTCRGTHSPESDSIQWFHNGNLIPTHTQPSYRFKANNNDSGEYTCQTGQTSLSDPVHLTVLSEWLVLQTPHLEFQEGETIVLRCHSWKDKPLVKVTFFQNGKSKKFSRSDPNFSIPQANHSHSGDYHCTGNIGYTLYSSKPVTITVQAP
Briefly: SPR (BIAcore), sCD32B immobilised, diabody injected for 60 s. As for the experimental part:
as §1

The target in test [3] is T4, soluble CD32B (sCD32B). Briefly: SPR (BIAcore 1000); receptor amine-coupled (~1000 RU), analyte 6.25-200 nM; units not printed (koff/kon implies nM). Here is the method: as §2, §3
In test [4] the target is T3, soluble CD16A (sCD16A). Briefly: SPR (BIAcore), sCD16 immobilised, diabody injected for 60 s. As for the experimental part: as §1

T3 sequence (P08637 17-208 limits assumed): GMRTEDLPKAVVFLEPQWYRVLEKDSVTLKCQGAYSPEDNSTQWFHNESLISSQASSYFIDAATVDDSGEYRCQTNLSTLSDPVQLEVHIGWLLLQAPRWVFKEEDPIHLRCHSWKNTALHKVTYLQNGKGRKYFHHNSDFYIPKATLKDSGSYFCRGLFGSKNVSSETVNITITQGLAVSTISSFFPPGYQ

B1: h3G8 covalent monospecific diabody (CMD) (other)
chain 1: DIVMTQSPDSLAVSLGERATINCKASQSVDFDGDSFMNWYQQKPGQPPKLLIYTTSNLESGVPDRFSGSGSGTDFTLTISSLQAEDVAVYYCQQSNEDPYTFGQGTKLEIKGGGSGGGGQVTLRESGPALVKPTQTLTLTCTFSGFSLSTSGMGVGWIRQPPGKALEWLAHIWWDDDKRYNPALKSRLTISKDTSKNQVVLTMTNMDPVDTATYYCAQINPAWFAYWGQGTLVTVSSLGGC
chain 2: DIVMTQSPDSLAVSLGERATINCKASQSVDFDGDSFMNWYQQKPGQPPKLLIYTTSNLESGVPDRFSGSGSGTDFTLTISSLQAEDVAVYYCQQSNEDPYTFGQGTKLEIKGGGSGGGGQVTLRESGPALVKPTQTLTLTCTFSGFSLSTSGMGVGWIRQPPGKALEWLAHIWWDDDKRYNPALKSRLTISKDTSKNQVVLTMTNMDPVDTATYYCAQINPAWFAYWGQGTLVTVSSLGGC
modifications: Covalent homodimer: disulfide between the C-terminal LGGC cysteines of the two identical chains.
notes: also called h3G8 CMD; h3G8 diabody
One may read the Kd as the constant that tells how readily two partners part at equilibrium. Regarding B1, the binding result with soluble CD32A (sCD32A) was “no binding (tested: 100 nM)”; with sCD32B-Ig, “no binding (tested: 0.5 ug/ml)”; in the test with soluble CD32B (sCD32B) [2], “no binding (tested: 100 nM)”. For the same molecule, the dissociation constant (Kd) with soluble CD16A (sCD16A) [1] turned out to be 18 nM.

B2: h2B6 covalent monospecific diabody (CMD) (other)
chain 1: EIVLTQSPDFQSVTPKEKVTFTCRTSQSIGTNIHWYQQKPDQSPKLLIKEVSESISGVPSRFSGSGSGTDFTLTINSLEAEDAATYYCQQSNTWPFTFGGGTKVEIKGGGSGGGGQVQLVQSGAEVKKPGASVKVSCKASGYTFTNYWIHWVRQAPGQGLEWIGVIDPSDTYPNYNKKFKGRVTMTVVVSTSTAYMELRSLRSDDTAVYYCARNGDSDYYSGMDYWGQGTTVTVSSLGGC
chain 2: EIVLTQSPDFQSVTPKEKVTFTCRTSQSIGTNIHWYQQKPDQSPKLLIKEVSESISGVPSRFSGSGSGTDFTLTINSLEAEDAATYYCQQSNTWPFTFGGGTKVEIKGGGSGGGGQVQLVQSGAEVKKPGASVKVSCKASGYTFTNYWIHWVRQAPGQGLEWIGVIDPSDTYPNYNKKFKGRVTMTVVVSTSTAYMELRSLRSDDTAVYYCARNGDSDYYSGMDYWGQGTTVTVSSLGGC
modifications: Covalent homodimer: disulfide between the C-terminal LGGC cysteines of the two identical chains.
notes: also called h2B6 CMD; h2B6 diabody
With B2, the binding result with soluble CD32A (sCD32A) and with soluble CD16A (sCD16A) [4] was “no binding (tested: 100 nM)” in each case. In addition, in the test with soluble CD32B (sCD32B) [3], the equilibrium dissociation constant (Kd) was determined as 21 nM.

(Values after patent US20070004909A1 (MacroGenics, published 2007).)
